Target: recombinant His6-RFLAT-1 (C-terminal portion of RFLAT-1, amino acids 59-288)
Sequence (chain, as listed by the source): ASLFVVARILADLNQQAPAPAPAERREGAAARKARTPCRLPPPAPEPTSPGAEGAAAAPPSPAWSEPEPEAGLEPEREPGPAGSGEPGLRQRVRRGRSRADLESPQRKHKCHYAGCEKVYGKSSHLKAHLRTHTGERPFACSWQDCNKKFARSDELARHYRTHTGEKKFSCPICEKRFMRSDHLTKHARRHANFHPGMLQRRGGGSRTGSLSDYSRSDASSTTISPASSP

B1: ERK1 kinase (protein)
chain: MAAAAAQGGGGGEPRRTEGVGPGVPGEVEMVKGQPFDVGPRYTQLQYIGEGAYGMVSSAYDHVRKTRVAIKKISPFEHQTYCQRTLREIQILLRFRHENVIGIRDILRASTLEAMRDVYIVQDLMETDLYKLLKSQQLSNDHICYFLYQILRGLKYIHSANVLHRDLKPSNLLINTTCDLKICDFGLARIADPEHDHTGFLTEYVATRWYRAPEIMLNSKGYTKSIDIWSVGCILAEMLSNRPIFPGKHYLDQLNHILGILGSPSQEDLNCIINMKARNYLQSLPSKTKVAWAKLFPKSDSKALDLLDRMLTFNPNKRITVEEALAHPYLEQYYDPTDEPVAEEPFTFAMELDDLPKERLKELIFQETARFQPGVLEAP
- phosphorylation of recombinant RFLAT-1 by kinase (control): As controls, ERK1 kinase does not

From US6376240
